Values belong to the binder of their own block, whether it stands above or below them.
Assays:
[1] = target: DLL3 endogenously expressed on NCI-H82 cells (UniProt Q9NYJ7); assay: FACS on NCI-H82 cells; antibody 100 nM
[2] = target: DLL3 endogenously expressed on NCI-H82 cells (UniProt Q9NYJ7); assay: FACS on NCI-H82 cells; antibody 0.00128 nM
[3] = target: human DLL3 protein expressed on CHO-K1 recombinant cells (human DLL3 extracellular segment fused to EpCAM transmembrane and intracellular regions) (human) (UniProt Q9NYJ7); assay: FACS, CHO-K1 hDLL3 cells, 0.032 nM antibody
Sequence of human DLL3 protein expressed on CHO-K1 recombinant cells (human DLL3 extracellular segment fused to EpCAM transmembrane and intracellular regions) (human) (Q9NYJ7 other isoform, or with tags, fused parts or gaps limits assumed): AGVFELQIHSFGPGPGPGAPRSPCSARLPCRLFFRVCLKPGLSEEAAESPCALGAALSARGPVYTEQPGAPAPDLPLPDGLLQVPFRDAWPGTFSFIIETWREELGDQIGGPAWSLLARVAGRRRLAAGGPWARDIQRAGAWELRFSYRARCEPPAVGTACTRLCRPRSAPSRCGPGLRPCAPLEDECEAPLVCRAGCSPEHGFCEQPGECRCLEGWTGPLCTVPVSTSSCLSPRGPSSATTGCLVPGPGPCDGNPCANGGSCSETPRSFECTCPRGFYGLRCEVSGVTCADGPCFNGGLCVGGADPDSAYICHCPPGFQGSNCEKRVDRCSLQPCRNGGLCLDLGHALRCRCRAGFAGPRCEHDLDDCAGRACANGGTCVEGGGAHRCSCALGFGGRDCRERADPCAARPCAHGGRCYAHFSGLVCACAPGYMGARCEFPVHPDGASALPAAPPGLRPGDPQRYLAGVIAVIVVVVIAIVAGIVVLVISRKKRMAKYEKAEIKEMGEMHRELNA

[4] = target: monkey DLL3 on CHO-K1-cyno DLL3 cells (cynomolgus monkey); assay: FACS, CHO-K1-cyno DLL3 cells, 0.0064 nM antibody
Sequence of monkey DLL3 on CHO-K1-cyno DLL3 cells (cynomolgus monkey) (chain, as listed by the source limits assumed): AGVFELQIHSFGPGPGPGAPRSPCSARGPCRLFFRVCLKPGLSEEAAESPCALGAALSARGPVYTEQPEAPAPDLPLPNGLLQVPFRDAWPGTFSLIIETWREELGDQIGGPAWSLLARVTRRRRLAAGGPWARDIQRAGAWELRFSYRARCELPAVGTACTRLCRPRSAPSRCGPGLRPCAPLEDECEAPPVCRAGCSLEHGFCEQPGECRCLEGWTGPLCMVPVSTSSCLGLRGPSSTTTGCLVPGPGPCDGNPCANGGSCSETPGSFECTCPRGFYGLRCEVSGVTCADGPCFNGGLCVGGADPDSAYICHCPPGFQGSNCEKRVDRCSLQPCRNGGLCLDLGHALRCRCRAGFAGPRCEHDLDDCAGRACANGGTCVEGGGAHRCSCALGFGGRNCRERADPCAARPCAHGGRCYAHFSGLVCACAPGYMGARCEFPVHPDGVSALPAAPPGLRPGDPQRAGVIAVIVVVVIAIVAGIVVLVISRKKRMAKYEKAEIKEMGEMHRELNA

[5] = target: human DLL3 protein expressed on CHO-K1 recombinant cells (human DLL3 extracellular segment fused to EpCAM transmembrane and intracellular regions) (human) (UniProt Q9NYJ7); assay: FACS, CHO-K1 hDLL3 cells, 4 nM antibody
[6] = target: monkey DLL3 on CHO-K1-cyno DLL3 cells (cynomolgus monkey); assay: FACS, CHO-K1-cyno DLL3 cells, 0.00128 nM antibody
[7] = target: monkey DLL3 on CHO-K1-cyno DLL3 cells (cynomolgus monkey); assay: FACS, CHO-K1-cyno DLL3 cells, 0.16 nM antibody
[8] = target: monkey DLL3 on CHO-K1-cyno DLL3 cells (cynomolgus monkey); assay: FACS, CHO-K1-cyno DLL3 cells, 0.032 nM antibody
[9] = target: DLL3 endogenously expressed on NCI-H82 cells (UniProt Q9NYJ7); assay: FACS on NCI-H82 cells; antibody 0.032 nM
[10] = target: human DLL4 protein (Acro, Cat. No. DL4-H5227) (human) (UniProt Q9NR61); assay: ELISA, coated hDLL4; maximum over 0.1, 1, 10, 100 nM antibody
Sequence of human DLL4 protein (Acro, Cat. No. DL4-H5227) (human) (Q9NR61 27-524 limits assumed): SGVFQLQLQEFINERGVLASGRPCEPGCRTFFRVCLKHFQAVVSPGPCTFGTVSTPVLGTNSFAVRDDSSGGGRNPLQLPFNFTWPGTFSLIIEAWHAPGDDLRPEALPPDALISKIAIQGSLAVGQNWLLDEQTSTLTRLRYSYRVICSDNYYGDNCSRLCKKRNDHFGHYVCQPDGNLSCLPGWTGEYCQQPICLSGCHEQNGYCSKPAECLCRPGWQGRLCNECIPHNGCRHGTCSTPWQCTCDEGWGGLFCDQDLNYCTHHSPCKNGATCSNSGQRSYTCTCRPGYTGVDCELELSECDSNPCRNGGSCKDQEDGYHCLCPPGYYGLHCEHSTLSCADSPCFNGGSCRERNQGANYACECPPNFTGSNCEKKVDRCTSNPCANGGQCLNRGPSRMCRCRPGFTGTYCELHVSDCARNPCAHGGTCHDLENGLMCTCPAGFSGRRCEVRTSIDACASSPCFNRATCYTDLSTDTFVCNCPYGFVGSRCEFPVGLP

[11] = target: DLL3 endogenously expressed on NCI-H82 cells (UniProt Q9NYJ7); assay: FACS on NCI-H82 cells; antibody 20 nM
[12] = target: DLL3 endogenously expressed on NCI-H82 cells (UniProt Q9NYJ7); assay: FACS on NCI-H82 cells; antibody 0.0064 nM
[13] = target: human DLL3 protein (extracellular segment, His tag) (human) (UniProt Q9NYJ7); assay: SPR (Biacore 8K), antibody captured on Protein A chip, DLL3 antigen in solution, 1:1 Langmuir fit
Sequence of human DLL3 protein (extracellular segment, His tag) (human) (Q9NYJ7 27-492): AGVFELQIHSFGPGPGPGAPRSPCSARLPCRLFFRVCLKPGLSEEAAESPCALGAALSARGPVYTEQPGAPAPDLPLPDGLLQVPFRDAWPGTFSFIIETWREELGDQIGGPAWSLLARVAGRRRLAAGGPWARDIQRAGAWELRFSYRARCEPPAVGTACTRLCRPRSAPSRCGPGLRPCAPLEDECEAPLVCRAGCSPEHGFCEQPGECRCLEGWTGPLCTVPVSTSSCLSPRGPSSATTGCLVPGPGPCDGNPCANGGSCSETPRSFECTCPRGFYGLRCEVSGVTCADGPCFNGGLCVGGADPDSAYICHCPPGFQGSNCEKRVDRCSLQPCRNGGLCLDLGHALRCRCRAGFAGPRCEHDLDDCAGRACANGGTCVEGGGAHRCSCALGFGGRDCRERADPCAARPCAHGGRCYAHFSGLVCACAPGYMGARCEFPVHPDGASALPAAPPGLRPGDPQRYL

[14] = target: human DLL3 protein expressed on CHO-K1 recombinant cells (human DLL3 extracellular segment fused to EpCAM transmembrane and intracellular regions) (human) (UniProt Q9NYJ7); assay: FACS, CHO-K1 hDLL3 cells, 100 nM antibody
[15] = target: human delta-like ligand 3 (DLL3) on SHP77 cells (human) (UniProt Q9NYJ7); assay: FACS on SHP77 cells
Sequence of human delta-like ligand 3 (DLL3) on SHP77 cells (human) (Q9NYJ7 27-618, stated change not applied): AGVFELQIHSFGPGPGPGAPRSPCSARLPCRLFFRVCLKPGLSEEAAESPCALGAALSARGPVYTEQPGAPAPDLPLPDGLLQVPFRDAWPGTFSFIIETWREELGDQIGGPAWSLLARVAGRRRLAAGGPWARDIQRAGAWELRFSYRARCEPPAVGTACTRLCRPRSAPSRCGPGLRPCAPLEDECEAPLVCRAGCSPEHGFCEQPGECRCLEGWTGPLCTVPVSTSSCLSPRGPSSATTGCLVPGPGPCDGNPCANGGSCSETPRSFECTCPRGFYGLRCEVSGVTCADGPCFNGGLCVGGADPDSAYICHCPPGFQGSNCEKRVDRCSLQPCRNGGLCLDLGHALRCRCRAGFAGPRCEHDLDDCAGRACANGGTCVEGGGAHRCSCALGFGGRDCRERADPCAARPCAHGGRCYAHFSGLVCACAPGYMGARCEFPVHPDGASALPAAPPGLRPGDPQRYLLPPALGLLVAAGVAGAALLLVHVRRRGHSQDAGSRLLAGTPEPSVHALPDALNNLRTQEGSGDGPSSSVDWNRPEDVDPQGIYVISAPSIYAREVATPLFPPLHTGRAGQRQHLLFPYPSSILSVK

[16] = target: human DLL3 protein expressed on CHO-K1 recombinant cells (human DLL3 extracellular segment fused to EpCAM transmembrane and intracellular regions) (human) (UniProt Q9NYJ7); assay: FACS, CHO-K1 hDLL3 cells, 20 nM antibody
[17] = target: human DLL3 protein expressed on CHO-K1 recombinant cells (human DLL3 extracellular segment fused to EpCAM transmembrane and intracellular regions) (human) (UniProt Q9NYJ7); assay: FACS, CHO-K1 hDLL3 cells, 0.16 nM antibody
[18] = target: DLL3 endogenously expressed on NCI-H82 cells (UniProt Q9NYJ7); assay: FACS on NCI-H82 cells; antibody 0.16 nM
[19] = target: monkey DLL3 on CHO-K1-cyno DLL3 cells (cynomolgus monkey); assay: FACS, CHO-K1-cyno DLL3 cells, 100 nM antibody
[20] = target: monkey DLL3 on CHO-K1-cyno DLL3 cells (cynomolgus monkey); assay: FACS, CHO-K1-cyno DLL3 cells, 0.8 nM antibody
[21] = target: human DLL3 protein expressed on CHO-K1 recombinant cells (human DLL3 extracellular segment fused to EpCAM transmembrane and intracellular regions) (human) (UniProt Q9NYJ7); assay: FACS, CHO-K1 hDLL3 cells, 0.0064 nM antibody
[22] = target: DLL3 endogenously expressed on NCI-H82 cells (UniProt Q9NYJ7); assay: FACS on NCI-H82 cells; antibody 0.8 nM
[23] = target: monkey DLL3 on CHO-K1-cyno DLL3 cells (cynomolgus monkey); assay: FACS, CHO-K1-cyno DLL3 cells, 20 nM antibody
[24] = target: DLL3 endogenously expressed on NCI-H82 cells (UniProt Q9NYJ7); assay: FACS on NCI-H82 cells; antibody 4 nM
[25] = target: monkey DLL3 on CHO-K1-cyno DLL3 cells (cynomolgus monkey); assay: FACS, CHO-K1-cyno DLL3 cells, 4 nM antibody
[26] = target: human DLL3 protein expressed on CHO-K1 recombinant cells (human DLL3 extracellular segment fused to EpCAM transmembrane and intracellular regions) (human) (UniProt Q9NYJ7); assay: FACS, CHO-K1 hDLL3 cells, 0.8 nM antibody
[27] = target: human DLL3 protein expressed on CHO-K1 recombinant cells (human DLL3 extracellular segment fused to EpCAM transmembrane and intracellular regions) (human) (UniProt Q9NYJ7); assay: FACS, CHO-K1 hDLL3 cells, 0.00128 nM antibody
[28] = target: human DLL1 protein (Acro, Cat. No. DL1-H52H8) (human) (UniProt O00548); assay: ELISA, coated hDLL1; maximum over 0.1, 1, 10, 100 nM antibody
Sequence of human DLL1 protein (Acro, Cat. No. DL1-H52H8) (human) (O00548 18-540 limits assumed): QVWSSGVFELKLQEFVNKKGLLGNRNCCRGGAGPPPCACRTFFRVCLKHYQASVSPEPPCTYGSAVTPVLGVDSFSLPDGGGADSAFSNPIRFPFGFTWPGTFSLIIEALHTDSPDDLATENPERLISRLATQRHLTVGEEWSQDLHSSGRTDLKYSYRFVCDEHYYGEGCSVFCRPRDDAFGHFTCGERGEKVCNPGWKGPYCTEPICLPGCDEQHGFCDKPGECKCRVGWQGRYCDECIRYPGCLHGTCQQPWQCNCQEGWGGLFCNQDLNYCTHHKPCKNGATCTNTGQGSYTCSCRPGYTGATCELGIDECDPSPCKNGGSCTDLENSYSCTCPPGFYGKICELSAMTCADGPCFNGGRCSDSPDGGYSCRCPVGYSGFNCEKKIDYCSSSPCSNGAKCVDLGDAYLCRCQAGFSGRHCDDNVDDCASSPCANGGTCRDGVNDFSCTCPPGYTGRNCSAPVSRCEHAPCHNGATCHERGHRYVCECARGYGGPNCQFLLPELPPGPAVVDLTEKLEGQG

Sequence of DLL3 endogenously expressed on NCI-H82 cells (Q9NYJ7 27-618): as the sequence (Q9NYJ7 27-618, stated change not applied) above

MFI [1]: 617
MFI [2]: 93
MFI [3]: 316 MFI
MFI [4]: 231 MFI
MFI [5]: 7440 MFI
MFI [6]: 129 MFI
MFI [7]: 1540 MFI
MFI [8]: 511 MFI
MFI [9]: 134
Emax of OD450 nm binding value [10]: 0.07 OD450 nm
MFI [11]: 503
MFI [12]: 106
Kd [13]: 0.535 nM
koff [13]: 0.000324 s⁻¹
kon [13]: 606000 M⁻¹ s⁻¹
MFI [14]: 7690 MFI
MFI at 0.00128 nM [15]: 119 MFI
MFI at 0.0064 nM [15]: 121 MFI
MFI at 0.032 nM [15]: 126 MFI
MFI at 0.16 nM [15]: 144 MFI
MFI at 0.8 nM [15]: 187 MFI
MFI at 4 nM [15]: 297 MFI
MFI at 20 nM [15]: 532 MFI
MFI at 100 nM [15]: 758 MFI
MFI [16]: 7660 MFI
MFI [17]: 866 MFI
MFI [18]: 194
MFI [19]: 18600 MFI
MFI [20]: 7010 MFI
MFI [21]: 148 MFI
MFI [22]: 312
MFI [23]: 19500 MFI
MFI [24]: 440
MFI [25]: 17600 MFI
MFI [26]: 3700 MFI
MFI [27]: 109 MFI
Emax of OD450 nm binding value [28]: 0.06 OD450 nm
B1: Hab008L1H2a-hFc (scFv, part only; not given: VL-VH linker and human IgG1 Fc, V domains shown, not shown: another chain or arm of the molecule; a dimerising Fc or GST; small tags and cut ends)
VL: DIQMTQSPSSLSASVGDRVTITCKASQNVGTAVAWYQQKPGKSPKLLIFSASIRYTGVPSRFSGSGSGTDFTLTISSLQPEDFATYYCQQYSSSPYTFGGGTKVEIK
VH: EVQLVQSGAEVKKPGASVKVSCKASGYTFTDYYMNWVRQAPGQRLEWMGIINPYNSGTSYNQKFRGRVTLTVDKSASTAYMELSSLRSEDTAVYYCSRYDYDYDVEGAMDYWGQGTTVTVSS

MFI [1]: 550
MFI [2]: 85
MFI [3]: 240 MFI
MFI [4]: 148 MFI
MFI [5]: 7190 MFI
MFI [6]: 103 MFI
MFI [7]: 928 MFI
MFI [8]: 329 MFI
MFI [9]: 90
Emax of OD450 nm binding value [10]: 0.04 OD450 nm
MFI [11]: 448
MFI [12]: 89
Kd [13]: 0.529 nM
koff [13]: 0.000405 s⁻¹
kon [13]: 766000 M⁻¹ s⁻¹
MFI [14]: 7600 MFI
MFI at 0.00128 nM [15]: 117 MFI
MFI at 0.0064 nM [15]: 117 MFI
MFI at 0.032 nM [15]: 121 MFI
MFI at 0.16 nM [15]: 129 MFI
MFI at 0.8 nM [15]: 168 MFI
MFI at 4 nM [15]: 255 MFI
MFI at 20 nM [15]: 426 MFI
MFI at 100 nM [15]: 613 MFI
MFI [16]: 8200 MFI
MFI [17]: 715 MFI
MFI [18]: 97
MFI [19]: 21400 MFI
MFI [20]: 3980 MFI
MFI [21]: 126 MFI
MFI [22]: 135
MFI [23]: 21300 MFI
MFI [24]: 307
MFI [25]: 14800 MFI
MFI [26]: 2700 MFI
MFI [27]: 98 MFI
Emax of OD450 nm binding value [28]: 0.04 OD450 nm
B2: Hab008L3H2a-hFc (scFv, part only; not given: VL-VH linker and human IgG1 Fc, V domains shown, not shown: another chain or arm of the molecule; a dimerising Fc or GST; small tags and cut ends)
VL: DIVMTQSPDSLAVSLGERATINCKASQNVGTAVAWYQQKPGQSPKLLIFSASIRYTGVPDRFSGSGSGTDFTLTISSLQAEDVAVYYCQQYSSSPYTFGGGTKVEIK
VH: B1 VH

From patent EP4786492A1
